7 sequences from the supplement of paper PMC11316812 can be followed below.

± gives the standard deviation of the averaged measurements.

For one series, the system named is MCF7. Description: percentage of EdU-negative (G0-arrested) nuclei per well, 72 h; higher = more G0 arrest. Particulars: reference: sequence is the full UniProt precursor, the tested protein was the secreted form or ectodomain.
In a further series the test system is hTERT-HMEC. Described as above. To be noted: reference: sequence is the full UniProt precursor, the tested protein was the secreted form or ectodomain.
[1] abbreviates: protein concentration 0.0257143 µM.
The mark [2] stands for this setting: protein concentration 0.257143 µM.
The mark [3] stands for this setting: protein concentration 0.0225 µM.
[4] abbreviates: protein concentration 0.0119275 µM.
Where [5] appears, read: protein concentration 0.119275 µM.
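Note: secreted proteins added to cultured cells, EdU pulse at the end, nuclei found by Hoechst imaging, EdU status from nuclear versus surrounding ring intensity ratio, PBS as neutral control.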

“MQKVTLGLLVFLAGFPVLDANDLEDKNSPFYYDWHSLQVGGLICAGVLCAMGIIIVMSAKCKCKFGQKSGHHPGETPPLITPGSAQS”: the “percentage of EdU-negative” value in the series on MCF7 (setting [1]) is 26.4 ± 0.91%; in the series with MCF7 (setting [2]), 24.9 ± 1%; in the series on hTERT-HMEC (setting [1]), 4.87 ± 0.45%; in the series with hTERT-HMEC (setting [2]), 4.969 ± 0.0066%.
On to “MQLPLALCLVCLLVHTAFRVVEGQGWQAFKNDATEIIPELGEYPEPPPELENNKTMNRAENGGRPPHHPFETKDVSEYSCRELHFTRYVTDGPCRSAKPVTELVCSGQCGPARLLPNAIGRGKWWRPSGPDFRCIPDRYRAQRVQLLCPGGEAPRARKVRLVASCKCKRLTRFHNQSELKDFGTEAARPQKGRKPRPRARSAKANQAELENAY [Q9BQB4]”, for which the “percentage of EdU-negative” value amounted to 28.1 ± 1.4% in the series on MCF7 (setting [3]), 34 ± 2% with MCF7 (protein concentration 0.225 µM), 5.07 ± 1.1% in the series with hTERT-HMEC (setting [3]) and 18.6 ± 2.6% in the series on hTERT-HMEC (protein concentration 0.225 µM).
For “MQLQASLSFLLILTLCLELRSELARDTIKDLLPNVCAFPMEKGPCQTYMTRWFFNFETGECELFAYGGCGGNSNNFLRKEKCEKFCKFT”, the “percentage of EdU-negative” value with MCF7 (setting [1]) came out at 25.8 ± 1.5%; in the series on MCF7 (setting [2]), 24.81 ± 0.086%; in the series on hTERT-HMEC (setting [1]), 4.34 ± 0.046%; in the series on hTERT-HMEC (setting [2]), 4.94 ± 0.32%.
With “MQLRNPELHLGCALALRFLALVSWDIPGARALDNGLARTPTMGWLHWERFMCNLDCQEEPDSCISEKLFMEMAELMVSEGWKDAGYEYLCIDDCWMAPQRDSEGRLQADPQRFPHGIRQLANYVHSKGLKLGIYADVGNKTCAGFPGSFGYYDIDAQTFADWGVDLLKFDGCYCDSLENLADGYKHMSLALNRTGRSIVYSCEWPLYMWPFQKPNYTEIRQYCNHWRNFADIDDSWKSIKSILDWTSFNQERIVDVAGPGGWNDPDMLVIGNFGLSWNQQVTQMALWAIMAAPLFMSNDLRHISPQAKALLQDKDVIAINQDPLGKQGYQLRQGDNFEVWERPLSGLAWAVAMINRQEIGGPRSYTIAVASLGKGVACNPACFITQLLPVKRKLGFYEWTSRLRSHINPTGTVLLQLENTMQMSLKDLL”, the “percentage of EdU-negative” value stood at 24.8 ± 0.73% in the series on MCF7 (protein concentration 0.021 µM), 24.3 ± 0.28% in the series on MCF7 (protein concentration 0.21 µM), 5.25 ± 0.8% in the series with hTERT-HMEC (protein concentration 0.021 µM) and 4.6 ± 0.74% with hTERT-HMEC (protein concentration 0.21 µM).
On to “MQLTRCCFVFLVQGSLYLVICGQDDGPPGSEDPERDDHEGQPRPRVPRKRGHISPKSRPMANSTLLGLLAPPGEAWGILGQPPNRPNHSPPPSAKVKKIFGWGDFYSNIKTVALNLLVTGKIVDHGNGTFSVHFQHNATGQGNISISLVPPSKAVEFHQEQQIFIEAKASKIFNCRMEWEKVERGRRTSLCTHDPAKICSRDHAQSSATWSCSQPFKVVCVYIAFYSTDYRLVQKVCPDYNYHSDTPYYPSG”, for which the “percentage of EdU-negative” value came out at 28.1 ± 0.43% in the series with MCF7 (setting [3]), 31.8 ± 2.5% with MCF7 (protein concentration 0.225 µM), 6.5 ± 0.97% in the series with hTERT-HMEC (setting [3]) and 6.09 ± 1.7% in the series with hTERT-HMEC (protein concentration 0.225 µM).
The matching figures for “MQMPAMMSLLLVSVGLMEALQAQSHPITRRDLFSQEIQLDMALASFDDQYAGCAAAMTAALPDLNHTEFQANQVYADSWTLASSQWQERQARWPEWSLSPTRPSPPPLGFRDEHGVALLAYTANSPLHKEFNAAVREAGRSRAHYLHHFSFKTLHFLLTEALQLLGSGQRPPRCHQVFRGVHGLRFRPAGPRATVRLGGFASASLKHVAAQQFGEDTFFGIWTCLGAPIKGYSFFPGEEEVLIPPFETFQVINASRLAQGPARIYLRALGKHSTYNCEYIKDKKCKSGPCHLDNSAMGQSPLSAVWSLLLLLWFLVVRAFPDGPGLL”: 23.7 ± 1.5%, 25 ± 0.33%, 5.126 ± 0.0053% and 6.16 ± 2.3%.
Take “MQPLWLCWALWVLPLASPGAALTGEQLLGSLLRQLQLKEVPTLDRADMEELVIPTHVRAQYVALLQRSHGDRSRGKRFSQSFREVAGRFLALEASTHLLVFGMEQRLPPNSELVQAVLRLFQEPVPKAALHRHGRLSPRSARARVTVEWLRVRDDGSNRTSLIDSRLVSVHESGWKAFDVTEAVNFWQQLSRPRQPLLLQVSVQREHLGPLASGAHKLVRFASQGAPAGLGEPQLELHTLDLGDYGAQGDCDPEAPMTEGTRCCRQEMYIDLQGMKWAENWVLEPPGFLAYECVGTCRQPPEALAFKWPFLGPRQCIASETDSLPMIVSIKEGGRTRPQVVSLPNMRVQKCSCASDGALVPRRLQP”: the “percentage of EdU-negative” value with MCF7 (setting [4]) is 25.8 ± 0.59%; with MCF7 (setting [5]), 26.51 ± 0.11%; with hTERT-HMEC (setting [4]) it was 5.05 ± 0.39%; in the series with hTERT-HMEC (setting [5]), 5.49 ± 0.4%.
